Test [1] has as its target human endoglin (human) (UniProt P17813). As to the kind of experiment: competitive binding inhibition on HUVEC by FACS; unlabelled TEC-4 against competitor biotinylated TEC-11, ratio 1:100.
The target is the same in test [2]. As to the kind of experiment: competitive binding inhibition on HUVEC by FACS; unlabelled TEC-4 against competitor biotinylated TEC-11, ratio 1:1.
The target is the same in test [3]. Nature of the test: competitive binding inhibition on HUVEC by FACS; unlabelled TEC-11 against competitor biotinylated TEC-4, ratio 1:1.

On to “TEC-4 (tumor endothelial cell antibody 4)”, for which the percent blocking of biotinylated antibody with human endoglin (human) [1] turned out to be 20%; with human endoglin (human) [2], 1%.
For the substance “TEC-11 (tumor endothelial cell antibody 11)”, the percent blocking of biotinylated antibody in the test with human endoglin (human) [3] was 51%.
